Assay results as given in paper PMC3279696.

Target: NLGN-1ΔAB-Fc (neuroligin-1 lacking splice inserts A and B, residues Q46-S693, with a C-terminal Fc domain) (UniProt Q62765)
Assay: SPR

**Q.** Which Kd does the source give for “β-NRXN-1 (ΔSS#4), soluble recombinant (domain or fragment)” here?
**A.** Its Kd is 30 nM.
